Data on 8 sequences can be found in the supplement of paper PMC10065799, “High-throughput profiling of sequence recognition by tyrosine kinases and SH2 domains using bacterial peptide display” (eLife, 2023).

One series deals with c-Abl (mouse). Description: phosphorylation enrichment, bacterial display (enrichment ratio); higher = better substrate or ligand; peptides without Tyr show the background.
The test system of the next series is c-Src. The description is as above.
Another series has as its target Jak2 (UniProt O60674). The series is described as above.
The target of the next series is Fyn (UniProt P06241). The series is described as above.
Fyn, sequence (P06241 whole entry, looked up): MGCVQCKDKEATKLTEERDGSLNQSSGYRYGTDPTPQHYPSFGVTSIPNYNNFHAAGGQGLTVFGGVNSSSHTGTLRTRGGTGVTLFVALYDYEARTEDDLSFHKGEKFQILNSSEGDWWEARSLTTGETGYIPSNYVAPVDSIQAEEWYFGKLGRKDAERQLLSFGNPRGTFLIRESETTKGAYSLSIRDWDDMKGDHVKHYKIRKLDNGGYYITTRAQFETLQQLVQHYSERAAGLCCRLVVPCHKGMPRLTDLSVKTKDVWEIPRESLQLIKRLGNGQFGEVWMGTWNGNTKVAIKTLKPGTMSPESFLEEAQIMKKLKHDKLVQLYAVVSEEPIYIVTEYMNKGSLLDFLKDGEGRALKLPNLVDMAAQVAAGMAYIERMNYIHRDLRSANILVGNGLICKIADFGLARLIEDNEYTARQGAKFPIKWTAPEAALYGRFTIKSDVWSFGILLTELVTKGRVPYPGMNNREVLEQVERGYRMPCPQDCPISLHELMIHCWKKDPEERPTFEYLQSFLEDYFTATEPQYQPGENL
In the next series the target is Hck (UniProt P08631). The description is as above.
Hck, sequence (P08631 whole entry, looked up): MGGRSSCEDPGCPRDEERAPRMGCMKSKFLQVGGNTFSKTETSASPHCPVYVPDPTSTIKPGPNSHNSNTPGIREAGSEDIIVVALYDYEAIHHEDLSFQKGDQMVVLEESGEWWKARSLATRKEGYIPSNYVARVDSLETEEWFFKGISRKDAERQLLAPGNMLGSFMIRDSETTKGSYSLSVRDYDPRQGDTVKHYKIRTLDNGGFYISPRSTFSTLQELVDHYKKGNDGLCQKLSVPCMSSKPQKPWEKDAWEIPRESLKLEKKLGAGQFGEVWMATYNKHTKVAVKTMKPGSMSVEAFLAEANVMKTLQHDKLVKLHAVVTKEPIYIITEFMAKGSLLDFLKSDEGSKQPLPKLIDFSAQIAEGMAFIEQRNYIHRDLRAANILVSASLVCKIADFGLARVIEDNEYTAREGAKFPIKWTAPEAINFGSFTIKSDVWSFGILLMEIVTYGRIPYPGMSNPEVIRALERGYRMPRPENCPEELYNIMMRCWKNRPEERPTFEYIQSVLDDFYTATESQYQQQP
Another series concerns AncSZ. The description is as above.
The next series concerns the target EPHB1 (UniProt P54762). The series is described as above.
A further series concerns the target Fes (UniProt P07332). The series is described as above.
The target in the next series is FGFR1 (UniProt P11362). Described as above.
FGFR1, sequence (P11362 whole entry, looked up): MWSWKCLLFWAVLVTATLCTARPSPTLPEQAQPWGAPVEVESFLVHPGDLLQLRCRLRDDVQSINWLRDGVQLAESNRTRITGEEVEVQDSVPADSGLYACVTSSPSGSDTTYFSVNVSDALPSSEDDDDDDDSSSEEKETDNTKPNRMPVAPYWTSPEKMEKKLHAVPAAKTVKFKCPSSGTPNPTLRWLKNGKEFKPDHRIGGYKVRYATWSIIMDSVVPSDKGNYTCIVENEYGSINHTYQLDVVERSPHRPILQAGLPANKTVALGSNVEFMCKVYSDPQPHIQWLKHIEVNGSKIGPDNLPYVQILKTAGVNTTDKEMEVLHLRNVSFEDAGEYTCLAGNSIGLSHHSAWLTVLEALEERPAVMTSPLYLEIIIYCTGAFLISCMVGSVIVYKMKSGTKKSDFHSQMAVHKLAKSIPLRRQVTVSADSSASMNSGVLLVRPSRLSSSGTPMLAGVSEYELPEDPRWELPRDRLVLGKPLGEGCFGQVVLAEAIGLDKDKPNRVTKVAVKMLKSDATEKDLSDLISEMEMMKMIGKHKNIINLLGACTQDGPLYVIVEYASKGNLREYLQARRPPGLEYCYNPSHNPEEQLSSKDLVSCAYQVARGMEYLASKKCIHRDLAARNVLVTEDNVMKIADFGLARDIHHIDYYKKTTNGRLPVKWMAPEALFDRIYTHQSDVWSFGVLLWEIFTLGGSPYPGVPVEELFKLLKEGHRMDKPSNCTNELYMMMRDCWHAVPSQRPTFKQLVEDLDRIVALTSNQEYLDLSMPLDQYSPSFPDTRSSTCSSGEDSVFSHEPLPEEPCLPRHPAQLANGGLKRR
The next series deals with Fer (mouse). Described as above.
Another series concerns the target EPHB2 (UniProt P29323). The series is described as above.
A further series concerns the target MERTK (UniProt Q12866). The description is as above.
A further series has as its target FGFR3 (UniProt P22607). Described as above.
In another series the target is SHP2-C SH2. Kind of series: SH2 binding enrichment of the phosphorylated peptide, bacterial display (enrichment ratio); higher = better substrate or ligand; peptides without Tyr show the background.
For the next series, the target named is c-Src SH2. The description is as above.
A further series deals with Grb2 SH2 (UniProt P62993). The series is described as above.
Grb2 SH2, sequence (P62993 whole entry, looked up, the tested form may be a part): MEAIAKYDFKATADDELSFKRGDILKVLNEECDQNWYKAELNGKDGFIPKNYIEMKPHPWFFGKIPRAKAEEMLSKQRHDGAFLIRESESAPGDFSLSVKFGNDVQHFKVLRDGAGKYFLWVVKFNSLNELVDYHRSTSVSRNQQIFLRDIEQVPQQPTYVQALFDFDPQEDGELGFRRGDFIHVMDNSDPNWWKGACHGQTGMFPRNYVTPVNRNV
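Throughout, for SH2 binding enrichment of the phosphorylated peptide, bacterial display: peptide library displayed on the E. coli surface as eCPX fusions, selected cells deep-sequenced, score is each peptide's frequency after selection divided by its frequency in the input.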
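Throughout, for phosphorylation enrichment, bacterial display: 11-residue human phosphosite peptides and single-mutation variants displayed on the E. coli surface, counted by deep sequencing, each peptide's frequency after selection divided by its frequency in the unselected input library; frequency after pTyr selection over input frequency; kinase dosed for 20-30% of maximal phosphorylation in three min.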

EPHB2, sequence (P29323 whole entry, looked up): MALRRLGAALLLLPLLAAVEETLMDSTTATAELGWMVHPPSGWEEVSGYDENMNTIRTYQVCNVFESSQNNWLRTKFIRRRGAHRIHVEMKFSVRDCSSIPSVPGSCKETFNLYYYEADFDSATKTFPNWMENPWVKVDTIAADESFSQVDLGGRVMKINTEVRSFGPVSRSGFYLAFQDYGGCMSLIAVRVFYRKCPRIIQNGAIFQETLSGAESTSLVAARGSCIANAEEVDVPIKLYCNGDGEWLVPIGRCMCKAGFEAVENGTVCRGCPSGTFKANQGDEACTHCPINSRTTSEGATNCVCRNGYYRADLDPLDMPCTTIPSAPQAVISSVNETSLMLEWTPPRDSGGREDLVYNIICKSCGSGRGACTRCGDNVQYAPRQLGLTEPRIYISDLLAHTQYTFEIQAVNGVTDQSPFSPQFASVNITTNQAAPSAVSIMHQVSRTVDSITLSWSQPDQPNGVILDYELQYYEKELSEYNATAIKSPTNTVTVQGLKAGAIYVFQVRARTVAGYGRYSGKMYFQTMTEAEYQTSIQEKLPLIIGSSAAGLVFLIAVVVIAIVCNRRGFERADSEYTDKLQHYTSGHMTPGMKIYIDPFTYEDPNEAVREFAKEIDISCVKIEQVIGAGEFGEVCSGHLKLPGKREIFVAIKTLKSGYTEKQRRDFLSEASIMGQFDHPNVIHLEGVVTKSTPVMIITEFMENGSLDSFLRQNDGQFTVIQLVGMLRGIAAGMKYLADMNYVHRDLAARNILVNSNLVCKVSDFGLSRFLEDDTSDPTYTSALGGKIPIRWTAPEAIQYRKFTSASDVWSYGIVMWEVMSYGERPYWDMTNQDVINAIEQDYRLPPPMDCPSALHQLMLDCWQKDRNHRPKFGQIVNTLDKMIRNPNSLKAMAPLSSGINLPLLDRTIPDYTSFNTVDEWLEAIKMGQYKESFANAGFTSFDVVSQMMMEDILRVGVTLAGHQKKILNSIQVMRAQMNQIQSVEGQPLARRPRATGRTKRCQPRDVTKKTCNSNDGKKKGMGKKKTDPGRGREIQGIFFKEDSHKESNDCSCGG
Fes, sequence (P07332 whole entry, looked up): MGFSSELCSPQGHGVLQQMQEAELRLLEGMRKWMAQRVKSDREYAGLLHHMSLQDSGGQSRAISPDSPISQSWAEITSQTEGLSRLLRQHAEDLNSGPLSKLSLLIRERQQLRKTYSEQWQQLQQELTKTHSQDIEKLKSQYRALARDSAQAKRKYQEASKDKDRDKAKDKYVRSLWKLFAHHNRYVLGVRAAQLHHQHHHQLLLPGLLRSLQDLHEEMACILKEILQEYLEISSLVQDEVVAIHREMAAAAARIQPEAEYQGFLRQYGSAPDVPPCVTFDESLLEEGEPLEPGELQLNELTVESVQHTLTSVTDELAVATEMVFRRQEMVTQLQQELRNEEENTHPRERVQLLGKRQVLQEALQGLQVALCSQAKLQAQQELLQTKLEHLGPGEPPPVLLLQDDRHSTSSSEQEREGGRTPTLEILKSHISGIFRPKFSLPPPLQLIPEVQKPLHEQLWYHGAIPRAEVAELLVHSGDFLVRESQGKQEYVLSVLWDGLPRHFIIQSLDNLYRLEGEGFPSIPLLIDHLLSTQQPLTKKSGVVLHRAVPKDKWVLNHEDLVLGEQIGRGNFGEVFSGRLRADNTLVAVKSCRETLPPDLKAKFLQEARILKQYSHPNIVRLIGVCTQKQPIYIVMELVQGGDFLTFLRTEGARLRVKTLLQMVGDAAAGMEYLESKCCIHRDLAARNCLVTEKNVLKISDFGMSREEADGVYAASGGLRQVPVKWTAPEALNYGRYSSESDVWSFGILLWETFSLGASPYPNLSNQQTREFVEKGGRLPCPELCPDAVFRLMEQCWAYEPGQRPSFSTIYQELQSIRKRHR
EPHB1, sequence (P54762 whole entry, looked up): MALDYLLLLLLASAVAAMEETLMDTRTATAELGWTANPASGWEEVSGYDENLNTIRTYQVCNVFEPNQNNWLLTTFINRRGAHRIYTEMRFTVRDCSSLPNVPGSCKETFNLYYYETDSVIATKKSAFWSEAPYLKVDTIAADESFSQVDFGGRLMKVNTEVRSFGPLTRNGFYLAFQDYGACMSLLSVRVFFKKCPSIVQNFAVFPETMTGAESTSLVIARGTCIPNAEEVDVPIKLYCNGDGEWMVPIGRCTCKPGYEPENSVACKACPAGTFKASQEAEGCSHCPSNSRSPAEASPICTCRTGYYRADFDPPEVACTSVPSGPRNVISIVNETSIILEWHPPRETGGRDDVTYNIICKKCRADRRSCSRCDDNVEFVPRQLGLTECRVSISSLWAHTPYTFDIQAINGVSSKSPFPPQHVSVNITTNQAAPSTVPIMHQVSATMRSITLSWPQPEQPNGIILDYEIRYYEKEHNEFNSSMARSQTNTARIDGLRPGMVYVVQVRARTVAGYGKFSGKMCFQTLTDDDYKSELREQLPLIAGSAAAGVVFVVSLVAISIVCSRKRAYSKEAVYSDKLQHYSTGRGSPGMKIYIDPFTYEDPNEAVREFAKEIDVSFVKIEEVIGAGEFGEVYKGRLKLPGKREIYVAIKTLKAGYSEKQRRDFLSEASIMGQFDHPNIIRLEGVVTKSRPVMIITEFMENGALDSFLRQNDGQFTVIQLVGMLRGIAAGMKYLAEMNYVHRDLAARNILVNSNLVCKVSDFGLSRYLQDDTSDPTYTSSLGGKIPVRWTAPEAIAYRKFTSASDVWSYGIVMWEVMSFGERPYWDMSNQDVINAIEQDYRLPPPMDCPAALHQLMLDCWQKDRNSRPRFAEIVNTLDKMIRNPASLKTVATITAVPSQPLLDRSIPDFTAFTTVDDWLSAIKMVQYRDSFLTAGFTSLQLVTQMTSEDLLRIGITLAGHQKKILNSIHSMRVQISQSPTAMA

RMSSSYPTGLA [ADM_Y52]: the phosphorylation enrichment in the series with c-Abl (mouse) was found to be 0.518; in the series with c-Src, 0.334; with Jak2, 0.473; with Fyn, 0.525; in the series with Hck it was 0.509; in the series on AncSZ, 0.525. Further, the phosphorylation enrichment with EPHB1 worked out at 0.37; in the series with Fes it was 0.542; with FGFR1, 0.562; with Fer (mouse) it was 0.502; in the series with EPHB2 it was 0.447; in the series with MERTK it was 0.433. Moreover, in the series with FGFR3, the phosphorylation enrichment is 0.613. Further, the SH2 binding enrichment with SHP2-C SH2 was found to be 0.406; in the series with c-Src SH2, 0.422; with Grb2 SH2, 0.714.
On to RNFDTYTAGLS [RHBDD1_Y264_YF], for which the phosphorylation enrichment with c-Abl (mouse) was 0.436; in the series on c-Src it was 1.15; with Jak2, 0.511; in the series with Fyn, 0.9; in the series with Hck, 3.7; in the series on AncSZ, 0.62. Further, the phosphorylation enrichment with EPHB1 came out at 1.9; in the series with Fes, 0.802; in the series with FGFR1 it was 0.407; in the series on Fer (mouse) it was 0.394; with EPHB2 it was 3.55; in the series with MERTK, 0.452. Besides, the phosphorylation enrichment with FGFR3 came out at 0.355. The values for the SH2 binding enrichment with SHP2-C SH2, with c-Src SH2 and in the series with Grb2 SH2 were 0.514, 0.428 and 0.664, respectively.
In the case of RNGDRYFKEIV [DCX_Y64_G67E], the phosphorylation enrichment in the series with c-Abl (mouse) is 0.548; in the series on c-Src, 0.559; in the series with Jak2, 0.469; with Fyn, 0.572; with Hck it was 0.559; with AncSZ, 0.546. For the same sequence, the phosphorylation enrichment is 0.55 with EPHB1; 0.705 with Fes; 0.703 with FGFR1; 0.472 in the series on Fer (mouse); 0.626 in the series with EPHB2; 0.514 with MERTK. For the same sequence, the phosphorylation enrichment with FGFR3 came out at 1.51. The SH2 binding enrichment in the series with SHP2-C SH2 came to 0.588; in the series with c-Src SH2 it was 0.393; with Grb2 SH2, 0.749.
On to RNIQQYNSFVS [PRKAR1A_Y373], for which the phosphorylation enrichment in the series with c-Abl (mouse) is 0.986; with c-Src, 0.589; with Jak2 it was 0.667; with Fyn, 0.648; with Hck it was 0.64; in the series on AncSZ, 0.768. Besides, the phosphorylation enrichment with EPHB1 stood at 0.391; in the series with Fes, 0.743; with FGFR1 it was 0.573; in the series with Fer (mouse) it was 0.534; with EPHB2, 0.611; with MERTK, 0.457. The phosphorylation enrichment with FGFR3 came to 0.787. In addition, the SH2 binding enrichment with SHP2-C SH2 was determined as 0.683; with c-Src SH2, 0.602; with Grb2 SH2, 0.782.
For RNLLIYTEFGK [HGD_Y166_G161R], the phosphorylation enrichment in the series on c-Abl (mouse) is 2.48; in the series with c-Src it was 4.93; in the series with Jak2, 0.997; in the series with Fyn, 8.15; with Hck, 5.2; in the series with AncSZ, 1.4. For the same sequence, the phosphorylation enrichment stood at 2.86 with EPHB1; 1.22 with Fes; 0.583 with FGFR1; 0.827 in the series on Fer (mouse); 1.12 with EPHB2; 5.3 with MERTK. The phosphorylation enrichment with FGFR3 was 0.945. In addition, the results for the SH2 binding enrichment with SHP2-C SH2, with c-Src SH2 and with Grb2 SH2 were 0.194, 0.457 and 0.94, respectively.
On to RNNTEYVRDIG [MUSK_Y577_I575T], for which the phosphorylation enrichment was 0.479 in the series on c-Abl (mouse); 0.328 in the series on c-Src; 0.364 with Jak2; 0.496 with Fyn; 0.428 with Hck; 0.717 in the series with AncSZ. Besides, the phosphorylation enrichment worked out at 0.422 with EPHB1; 0.582 in the series with Fes; 0.418 with FGFR1; 0.302 in the series on Fer (mouse); 0.41 with EPHB2; 0.33 with MERTK. Moreover, in the series with FGFR3, the phosphorylation enrichment amounted to 0.427. The SH2 binding enrichment with SHP2-C SH2 amounted to 0.645; with c-Src SH2, 0.745; with Grb2 SH2, 0.834.
For RPDSPYSRPHD [DOK2_Y271], the phosphorylation enrichment in the series with c-Abl (mouse) came to 0.419; in the series with c-Src, 0.372; with Jak2, 0.436; in the series with Fyn it was 0.317; with Hck it was 0.367; with AncSZ it was 0.71. The phosphorylation enrichment with EPHB1 was 0.258; with Fes, 0.519; with FGFR1, 0.364; in the series on Fer (mouse), 0.379; in the series with EPHB2 it was 0.49; with MERTK, 0.369. The phosphorylation enrichment with FGFR3 is 0.485. For the same sequence, the SH2 binding enrichment with SHP2-C SH2 was 0.422; with c-Src SH2, 1.29; in the series with Grb2 SH2, 0.729.
Consider RPFVFYFSFLL [PTEN_Y177_R173P_YF], for which the phosphorylation enrichment stood at 1.29 in the series on c-Abl (mouse); 0.982 with c-Src; 1.55 with Jak2; 0.76 in the series with Fyn; 0.867 in the series with Hck; 1.29 with AncSZ. The phosphorylation enrichment in the series with EPHB1 stood at 0.838; with Fes, 1.29; with FGFR1 it was 0.589; with Fer (mouse) it was 0.587; with EPHB2 it was 0.483; with MERTK, 0.641. Moreover, the phosphorylation enrichment with FGFR3 worked out at 0.835. For the same sequence, the SH2 binding enrichment with SHP2-C SH2 stood at 1.02; with c-Src SH2, 0.918; with Grb2 SH2, 2.27.
